From the nanobody polyreactivity screen of Harvey et al. (2022)

Test: yeast display, Sf9 membrane polyspecificity reagent, FACS + sequencing; frameworks hold sequencing errors
In short: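 Nanobodies from a synthetic yeast display library (Saccharomyces cerevisiae BJ5465), induced 36–48 hours with galactose, were stained 1 hour at 4 °C with 10% biotinylated, detergent-solubilized Sf9 membrane reagent, enriched on streptavidin microbeads, then FACS-sorted. Anti-HA (expression) and streptavidin (reagent binding) fluorescence set low and high (top ~1%) gates. Polyreactivity labels come from the gate of origin. Genes were colony-PCR amplified, MiSeq 2 × 250 sequenced and filtered by CDR length.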

Row | Sequence | polyreactivity (PSR sort gate)
1 | QVQLVESGGGLVQAGGSLRLSCAASGFIFRHYAMGWYRQSPGKAREMVAVINWSGSSTYYADSVKGRFTISRDNEKNTVFLQMNSLKPEDTAVYYCAVRSLRVDKYGYWGLGTQVTVSS | high polyreactivity
2 | QVHLVESGGGLVQAGGSLRLSCAASGRTFRQYAMGWNIQAPGKERELVATISSGGSTYYADSVKGRFTISRDNAKNTVYLQMNSLKPEDTSVYYCAAASGTKRLYRGTRGDYWGQGTQVTVSS | low polyreactivity
3 | QVQLVESGGGLVQAGGSLRLSCAASGSIFNLYAMGWYRQAPGKERELVAAIRWSGGSTYYADSVKGRFTISRDNAKNTVYLKMKSMKPEDTAVYYCNAEWKSYRVPKFEYWGQGTQVTVSS | low polyreactivity
4 | QVQLVESGGGLVQAGGSLRLSCAASGSTFTWYAMGWYRQAPGKERELVAAISGSGGRTFYADSVKGRFTISRDNAKNTVYLQMNSLKPEDTAVYYCNAVRVSIPYIYTMDYWGQGTQVTVSS | high polyreactivity
5 | QVQLVESGGGLVQAGGSLRLSCAASGRTFNAYTMGWYRQAPGKERELVAAITRSGARTYYADSVKGRFTISRDNAKNTVYLQMNSLKPEDTAVYYCNKAAFNYYLYGYWGQGTQVTVSS | high polyreactivity
6 | QVQLVESGGGLVQAGGSLRLSCAASGSTFYNNAMGWYRPAPGKERELVAAISSGGGTYYADSVKGRFTISRDNAKNTVYLQMNSLKPEDTAVYYCAAYFANTTHWGRIKRYDYWGQGTQVTVSS | low polyreactivity
7 | QVQLVESGGGLVQAGGSLRLSCAASGRTFPRYAMGWYRQAPGKERELVAAITRRGSSTYYADSVKGRFTISRDNAKNTVYLQMNSLKPEDTAVYYCATSYHGYYYRYDYWGQGTQVTVSS | high polyreactivity
8 | QVQLVESGGGLVQAGGSLRLSCAASGRIFGSYAMGWYRQAPGKERELVAGIRSVGSTYYADSVKGRFTISRDNAKNTVYFQMNSLKPEDTAVYYCAAEYFNQNTRQGYDSWGQGSQVTVSS | low polyreactivity
9 | QLQLVESGGGLVQAGGSLRLSCAASGYTFYRYAMGWYRQAPGKERELVAAISSAGTTNYADSVKGRFTISRDNAKKTVYFQMNSLKPEDTAVYYCNKRGRNHNSLKYGYWGQGTQVTVSS | high polyreactivity
10 | QVQLVESWGGLVQAGGSLRLSCAASGSTFRRNAMGCYRQAPGKERELVAAITRSGDSTYYADSVKGRFTISRDYAKNTVYLQMNSLKPEDTAVYYCAADSSRYRYRNQGYYWGQGTQVTVSS | high polyreactivity
11 | QVQLVESGGGLVQAGGSLRLSCAASGSTLYVYTMGWYRQAPGKERELVAGITRGGSTYYADSVKGRFTISRDNAKNTVYLQMNSLKPEDTAVYYCAARSSYREYYWGQGTQVTVSS | high polyreactivity
12 | QVQLVDSGGGLVQAGGSLRLSCAASGIIFRTNAMGWYRQAPGKERELVAAIRWSDGSTYYADSVKGRFTISRDNAKNTVYLQMNSLKPEDTAVYYCNAASQYTFDCSFDDWGQGTQVTVSS | low polyreactivity
13 | QVQLVESGGGLVQAGGSLRLSCAASGFTFSIYAMGWYRHAPGKERELVAAINWSGGSTYYADSVKGRFTISRDNAKNTVYLQMNSLKPEDTAVSYCATEATYGGGPGYEYWGQGTQVTVSS | low polyreactivity
14 | QVHLVESGGGLVQAGGSLRLSSAAYGRTFKYNAMGWYRQAPGKRKELVAAISSGGSTYYADSVKGRFTISRDNAKKTVYFQMNSLKPEDTAVYYCAVRNTKSYWFGYWGQGTQVTVSS | high polyreactivity
15 | QVQLVESGGGLVQSVGSLRLSCAASGFTFRWYAMGWYRQAPGKERELVAAITSRGGTTYYADSVKGRFTISRDNAKNTVYLQMNSLNPEDTAVYYCAARRAGRRGYYYWGQGTQVTVSS | high polyreactivity
16 | QVQLVESGGGLVQAGGSLRLSCAASGRIFKRNAMGWYRQAPGKERELVAAISYSGGSTYYADSVKGRFTISRDNAKQTVYLQMNSLKPEDTAVYYCAVDRYPTGITKYDYWGQGTLVTVSS | high polyreactivity
17 | QVQLVESGGGLVQAGGSLRLSCAASGRIFDRYAMGWYRQAPGKERELVATIDSGGSTNYADSVKGRFTISRDNAKNTVYLQMNSLKPEDTAVYYCAVVTHSGYWSYYYWGQGTQVTVSS | low polyreactivity
18 | QVQLVESGGGLVQAGGSLRLSCAASGRTFQWYAMGWYRQAPGKERELVAAISYSDASTYYADSVKGRFTISRDNAKNTVYLQMNSLKPEDTAVYYCAAVYYVVYGPWGGSYYWGQGTQVTVSS | low polyreactivity
19 | QVQLVESGGGLVQAGGSLRLSCAASGNTFNLYAMGWYRQAPGKERELVASMTSGGGTNYADSVKGRFTISRDNAKNTVYLQMNSLKPEDTAFFYCAATDWFSEYYWGQGTQVTVSS | low polyreactivity
20 | QVQLVDSGGGLVQAGGSLRLSCAASGNIFTSYARGWYRQAPGKERELVAAISSGGRTSYADSVKGRFTISRDNAMNTVFLQMNSLKPDYTAVYYCAAYYRRWPREYYYWGQGTQVSVSS | high polyreactivity
21 | QVQLVESGGGLVQAGGSLRLSCAASGFTFSYYAMGWYRQAPGKERELVAAISSGGSTYYADSVKGRFTISRDNAKNTVYLQMHRLKPEDTAVYYCNVLNYSSRHYLFSYDYWGQGTQVTVSS | high polyreactivity
